{
  "source": "paper doi:10.1101/2021.09.12.459962",
  "about": "(bioRxiv, 2021)",
  "proteins": {"B1": {"name": "UDS1-His6 (natural protein, Aspergillus nidulans, UniProt Q5B1I5 1-941, looked up)", "chain": "MNGFDFRSSQSSYGDPRHFSDASYGVPQPPPTKVLLDGYRDALGPANAEKSLYNSANPTSHPRRSIPPSANDPVAMYLLTETAMGDSVNYEILSVEEVEGLKKELRVLSNRMNAAKRKLALELKLRDAAMSLSRLHHKEEHDVDGSGRNEPNTDKTNEELVHINRKCEELSMDIWYSERKVQEIQKRLLEHTAGVLQLTHKGLKKNSKNGMPHTPESLSSSNTVDDFDDRSLYKASDPLDGPETYETRAPPPDNLAHDNSMQETERKLESMSSRLRDMLLQLDPDSEFSQIPQPSTSGDSFEPSAMIDAHLRYIENGISALGSLPKADMASQSLDPVSEQQLVEMRTQLLSIMENPGLPRAQTLPTAPDPTDSDLAKHLTFLSVGINGLESRVEKLLEQKSILTTQIQQQRELNSKSDAERDAKIADLIEQLAHLRKELELAEREGQQSKEDHDLTLKELEDVRRELLESRETHSSRDLGNSKNEAQQHAEAEIARLQSVIQEIQQEKDEHCEAHRRAEAEIDRLQAVIHQIQQEKDEHREAHERAEAETTRLQTIVEEVQQEKDEQHEAHGRAVAEVTRLQDIIQKIEQEKIERHEADERAEAEIVRLRDTIREIQQEKEEHHEARVRLEGEVARLQGVIGQLQESAESRESAEQQVAQLEETIHQIRHDADIRIKEATDSRAQADAKIAQLEGAMNEVRESLESQLKEATEARNNAEENSTRLQKELTELERDVVRAQTELTMVKAELDGAYGTRAQRAAEAAADPALFHELDELKARNFEMAEELAALKAGKPGSGDVHNRVETLERELRETVDDYEAMTKASIEFEKERERFESMIDSLRDRCEQLETQLNEERISWMGANNSASSMGRDGPYETTSTMVLKNEFKKMMRDTRAENMKILKAEQEERRKLEAILRNLKREQANLSGKSNISRTVTAS", "notes": "UDS1, product of AN5595 of Aspergillus nidulans, 941 residues; UDS1 cDNA cloned as NheI/NotI in pET21b; Mr 106,857 Da; Dimer by sedimentation equilibrium; also called purified UDS1; bacterially expressed UDS1; source: E. coli BLB21 pRIL, purified (Ni-Sepharose, Superdex gel filtration)"}},
  "target": "the molecule itself",
  "test": "AUC; sedimentation equilibrium of UDS1-His at 4 µM, 6000 to 9000 rpm, single-species model; monomers to dimer",
  "data": [
    {"protein": "B1", "values": [
      {"measurement": "stoichiometry N", "result": 2}
    ]}
  ]
}
